The values that follow come from article PMC6326814.

Assay [1] has as its target BbvCI R2 subunit, wild type (Geobacillus brevis). The experiment in a line: SEC; purified enzyme at pH 7.5 (pH of the storage buffer); sample with 1:1 subunits by Supplementary Figure S1. Background: In gel filtration, larger molecules generally elute earlier.
For assay [2] the target is unchanged. The experiment in a line: crystal structure; crystal form 1, grown from the purified enzyme with dsDNA oligos against 0.8 M ammonium sulfate, 100 mM sodium acetate pH 4.5, 2 mM CaCl2; only R2 in the crystal.

By stoichiometry N is commonly meant the number of molecules, sites or subunits per partner or assembly. With BbvCI R1 subunit, wild type (enzyme), in assay [1], the stoichiometry N is 1 R1:R2.

BbvCI R2 subunit, wild type (enzyme) registered a stoichiometry N in assay [2] of 2.
